According to the nanobody polyreactivity screen of Harvey et al. (2022):

Experiment: yeast display, Sf9 membrane polyspecificity reagent, FACS + sequencing; frameworks hold sequencing errors
Procedure, shortened: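 Galactose-induced (36–48 hours) yeast carrying a synthetic nanobody display library were exposed to 10% biotinylated, detergent-solubilized Sf9 membrane reagent at 4 °C for 1 hour. FACS followed streptavidin microbead enrichment, using low and high (top ~1%) gates for expression (anti-HA) and reagent binding (streptavidin). Colony PCR, MiSeq 2 × 250 sequencing and CDR-length filtering followed. Labels for polyreactivity reflect the gate of origin.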

| Sequence | polyreactivity (PSR sort gate) |
| --- | --- |
| QVQLVESAGVLVQAGGSLRFSCAPSGIIFPQYAMGWYRQAPGKARELVAAITYSGDGTYYADSVKGRFTISRDNAKYTVYLLMYSLKPDDTAVYYCAAFPRDPYKEYDYWGQGTQLTVSS | low polyreactivity |
| QVQLVESGGGLVQAGGSLRLSCAASGIIFSSNAMGWYRQAPGKERELVAAITRRGGSTRYADSVKGRFTISRDNAKNTVYLQMNSLKPEDTAVYYCNALTGYPYRWGISYPMDYWGQGTQVTVSS | high polyreactivity |
| QVHLVESVGGLLQAGGSLPLSCPASGSTFYDYAMGWYRPAPGKERELVASITTGGDSTYYADSVKGRFTISRDNAKNSVYLQMKSLIPEDSAVYYFNADWYYWFSNYQGAPEMDYWGQGTQVSVSS | high polyreactivity |
| QVLLQESVGGLVQAGGSLRLGCAASGTISPAYYMGRYQQEPGKVRQFVAAITYGTNTYYADSVKGRFTISRDNAKNTVYLQMNSLKPEDTAVYYCSATAGYNGAHDYWGQGTQVTVSS | low polyreactivity |
| QVQLVESGGGLVQAGGSLRLSCAASGFIFYVYAMGWYRQARGKERELVAAISGGGDSTYYADSVKGRFTISRDNAKNTVYLQMNSLKPEHTAVYYCAAEPWANTPGEAGSPFDYWGQGTQVTVSS | low polyreactivity |
| QVQLVESGGGLVQAGVSLRLSCAASGRIFYRYAMGWYRPPPVKERELVAGITSGGSTYYADSVKGRFTISRDNAKNTVYLQMMSLKPEDTAVYYCAAVSYRSRTHRYPATFAYGSWGQGTQETVSS | high polyreactivity |
| QDQLVESGGGLVQAGGSLRLSCAASGFTFRSNAMGWYRQAPGKERELVAAISRTGGSTYYADSVKGRFTISRDNAKNTVYLQMNSLKPEETAVYYCNTVYGKSHYGQAMDSWGQGTQVTVSS | high polyreactivity |
| QVQLVESGGGLVQAGGSLRLSCAASGRIFRWYTMGWYRQAPGKEREFVAAITWSDTSTSYADSVKGPFTISRDNAKNTVYLQMNSLKPEDTAVYYCAAPTHLHGHGNQNEFYYWGQGTQVTVSS | low polyreactivity |
| QVQLVESGGGLVQAGGSLRLSCAASGSTFQWYTMGWYRQAPGKERECVAAISRSGGRTYYADSVKGRFTISRDNAKNTVYLQMNSLKPVDTAVYYCAKYYYLYWSSQRDYWGQGTQVTVSS | high polyreactivity |
| QVQLVESGGGLVQAGGSLRLSCAASGSIFGPYAMGWYRQAPGKERELVAAISTRGGRTYYADSVKGRFTISRDNAKNTVYLQMISLKPEDTAVYYCNDRRSDSRSYDYWGQGTQVTVSS | high polyreactivity |
| QVQLEESGGGLVQAGGSLRLSCAASGIIFSIYAMGLYRKAPGKERELVAAITYSGGRTYYADSVKGRFTISRDNAKNTVYLQMNSLKPEDTAVYYCAAVVYGEYYWGQGTQVTVSS | high polyreactivity |
| QVQLVESGGGLVQAGGSLRLSCAASGITFDKYAMGWNRQAPGKERELDAAISGSDGSTYYADSVKGRFTISRDNAKNTVYLQMNILKPEDTAVYYCAAESEYAGTYEYDYWGQGTQVTVSS | low polyreactivity |
| QVQLVESGGGLVQAGGSLRLICAASGRTFALYAMGWYRQAPGKEREVVASISWRGGSTYYADSVKGRFTISRDTAKNTVYLQMNSLKPEDTAVDYCAADTWSYGPLNYRLEYWGQGTQVTVSS | low polyreactivity |
| QVQLVESGGGLVQAGGSLRLSCAASGFIFSKYARGCYRQAPGKEGELVAAITFSGGSTYYADSVKGRFTISRDNAKNTVYLQMHSLKPEDTAVYYCNAEGSYPDVSPVLGYDYWGQGTQVTVSS | low polyreactivity |
| QDHLVESGGGLVQAGGSLRLSCAASGRTFGRNAMGWYRQAPGKERDFVAAITSSGGSTYYADSVKGRFTISRDNAKNTVYFQMNSLKPEDSAVFYCARSTRYYSWRRMDYWGQGTQVTVSS | high polyreactivity |
| QVQLVESGGGLVQAGGSLRLSFAASGRIFGYYAMGWYRQAPGKERELVAAITTSDGSTYYADSVKGRFTISRDNAKNTVYLQMNSLKPEDTAVYYCNARRWGYQWRGDYWGQGTQVTVSS | high polyreactivity |
| QVQLVESGGGLVQAGGSLRLSCAASGITFGHYTMGWYRQAPGKEWDLVAAISWSGGSTYYADSVKGRFTISRDNAKYTVYLQMNSLKPEDTAVYYCNRVKRVIASYDSDYWGQGTQVTVSS | low polyreactivity |
| QVQLVESGGGLVQAGGSLRLSCAASGFTFANYAMGWYRQAPGKERELVAAITRTAGSTYYADSVKGRFTISRDNAKNTVYLQMNSLKPEDTAVYYCAVEGIYRWYDYSWYYTSTYDYWGQGTQVTVSS | low polyreactivity |
| QVQLGESGGGLVQAGGSLRLSCAASGRIFSTYVMGLYRQAPGKERELVAAITRGGSTNYADSVKGRFTISRDNAKNTVYLQMNSLKPEDTADYYCNAQRRGTYYWGQGTQVTVSS | high polyreactivity |
| QVQLVESGGGLVQAGCSLRLSWAASGNIFKGYAMGWSRQAPGKERELVAAISKSGGSTYYADSVKGRFTISRDNAKNTVYLQMNSLKPEDTAVYYCNTYTYAGYNFWGQGTQVTVSS | high polyreactivity |
| QVQLGESGGGLVQAGGSLRLSCAASGSIFKVNVMGWYRQEPGKERELVAAISRSGGNTYYADYVKGRFTISRDNAKNTVYLKMNSLKPEDTAVYYCAKDRRYYKAYDYWGQGTQVTVSS | low polyreactivity |
| QDQLVESGGGLVQAGGSLRLSCAASGRIIRQYAMGWYRQAPGKERELVAVISAGGARTYYADSVKGRFTISRDNAKNTVYLQMNSLKPEDTAVYYCAVSYPPGAYRRHFRYGYWGQGTQVTVSS | high polyreactivity |

| Sequence | polyreactivity (PSR sort gate) |
| --- | --- |
| QVQLVESGGGLVQAGGSLRLSCAASGRTFTVYAMGWYRQAPGKERELVAAISSGGITYYADSVKGRFTISRDNAKNTVYLQMNSLKPEDTAVYYCNTKSGKARYEFGYWGQGTQVTVSS | low polyreactivity |
| QVQLVESGGGLVQAGGSLRLSCAASGRTFGIYAMGWYRQAPGKEREMVAAISRGGNTYADSVKGRFTISRDNAKNTVYLQMNSLKQEDTAVYYCAAYSSYYVHRFQHYDYWGQGTQVTVSS | high polyreactivity |
| QVQLVESGGGLVQAGGSLRLSCAASGSNFTWYAMGWYRQAPGKERELVADIDWSGGSTYYADSVKGRFTISRDNAKNTVYLQMNSLKPEDTAVYYCNAVFLFYEYWGQGTQVTVSS | low polyreactivity |
| QVQLVESGGGLVQAGGSLRLSCAASGRTIDYNGMGSYRQAPGKERELVAVISSSGGSTFYADSVKGRFTISRDNAKNTVYLQMNSLKPVDTAVYYCAADFIVAYTLHGSYDYWGQGTQVTVSS | low polyreactivity |
| QVQLVESGGGLVQAGGSLRLSCAASGRTFGPYAMGWYRQAPGKERELVAAISSSGSTTYYADSVKGRFTISRDNAKNTVYLQMNSLKPEDTAVYYCAKPSSRDSPYDYWGQGTQVTVSS | low polyreactivity |
| QVQLVESGGGLVQAGGSLRLSCAASGFISTPYAIGWYRQAPGKERELVAAIDISGGRTYYADSVKGRFTISRDNAKNTVYLQMNSLKPEDTAVYDCAAQLVSSYYAWYRTYYYWGQGTQVTVSS | high polyreactivity |
| QVQLVESGGGLVQAGGSLRLSCAASGRILRQYAMGWYRQEPGKERELVAAISRSGASTFYADSVKGRFTISRDNAKNTVYLPMNSLKPEYTAVYYCASKRYLKYGYWGQGTQVTVSS | high polyreactivity |
| QVQLVESGGGLVQAGGSHRLSSAASARIFAVNVMGWYRQAPGKERELVAAISWSDDIKYYADSVKGRFTISRDNAKNTVYLQMNSLKPEDTAVYYCAADFLPLHADDDDEDYWGQGTQVTVST | high polyreactivity |
| QVQLVESGGGLVQAGGSLRLSCAASGSTFTYYAMGWYRQAPGKEREWVAAISGGGDTYYADSVKGRFTISRDNAKNTVYLQMTSLKPEDTAVYYCNARVWAKSPRGSQYNMYDYWGQGTQVTVSS | high polyreactivity |
| QVQLVESGGGLVQAGGSLRLSCAASGSTFSDYVMGWYRQAPGKERELVAAISWSGDRTYYADSVKGRFTISRDNAKNTVYLQMNSLKPEETAVYYCAAEYAPSEPSYYYGYDYWGQGTQVTVSS | high polyreactivity |
| QVQLVESGGGLVQAGGSLRLSCAASGFTFSFYAMGWYRQAPGKERELVATISSGGSTTYAVSVKGRFTISRDNAKNTVYLQMNSLKPEDTAVYYCNARPGQSGARFGYWGQGTQVTVSS | high polyreactivity |
| QVQLVESGGGLVQAGGSLRLSCAASGITFGAYAMGWDRQAPGKERELVASISSSGSTYADSVKGRFTISRDNAKTTVYLQMNSLKPEDTAVYYCNAVGFQANDYNYWRQGTQVTVSS | low polyreactivity |
| QVQLVESGGGLVQAGGSLRLSCAASGLTFSWNAMGWYRQAPGKERELVAAISSRGGSTYYADSVKWRFKISRDNAKNTVYLQMNSLKPEDTAVYYCNAHGRRFLGDYGYWGQGTQVTVSS | low polyreactivity |
| QVQLVESGGGIVQAGGSLRLSCAASGSILSYYAMGGYRQAPGNEREFVAAISWGTITNYADSVKGRFTISRDNAKKTVYLQMNSLKPEDTAVYYCNADPYGWYSSDYDYWGQGTQVTVSS | low polyreactivity |
| QVQLVESGGGLVQAGGSLRLSCAASGSIFSTYVMVWYRQAPGKERELVAAITVSVGSTYYADSVKGRFTISRDNAKNTVYLQMNSLKPEDTAVYYCAAYGGTGYPFDAYYHDYDYWGQGTQVTVSS | low polyreactivity |
| QVQLEESGGGLVQAGGSLRLSCAASGRIFHKNAMGWYRQAPGKEREFVATISSRGGSTYYADSVKGRFTISRDNSKNTVYLQMNSLKPEDSAVYYCAAGWYRNDWGQRLHTYYYWGQGTQVTVSS | high polyreactivity |
| QVQLVESGGGIVQAGGSLRLSCAASGSNLQYKAMGWYRQAPGKERELVADITSSGGSTYYADSVKGRFTISRDNAKNTVYLQMNSLKPEDTAVYYFAKDTHWAYYWGQGTQVTVSS | low polyreactivity |
| QVQLVESGGGLVQAGGSLRLSCAASGSTFGGYAMGWYRQAPGKERELVAAISSGGSTYYADSVKGRFTISRDNAKNTVYLQMNSLKPEDTAVYYCAAEGIYFILWYGYVEYDYWGQGTQVTVSS | low polyreactivity |
| QVQLVESGGGLVQAGGSLRLSCAASGSTFTSYAIGWYRQAPGKERELVAAIRYSGGRTYYADSVKGRFTISRDNAKNTVYFQMNSLKPEDTAVYYCAARSKVYKVGYNYWGQGTQVTVSS | high polyreactivity |
| QVQLVESGGGLVQAGGSLRLICAASGRIFLGYAMGWYRKAPGKERELVAAITSSSGITYYADSVKGRFTISRDNAKNSVYLQMNSLKPEDTAVYYCAARASSGRRTKRYNYWGQGTKVTVSS | low polyreactivity |
| QVQLVESGGGLVQAGGSLRLSCAASGLIFRTYTMGWYRQAPGKERELVATITRRGGTTYYADSVKGRFTISRDNAKNTVYLQMNSLKPEDTAVYYCAKSPYYTWKYDYWGQGTQVTVSS | high polyreactivity |
